The term Kd denotes the concentration at which binding is half-saturated. Lower therefore signals tighter binding.

In the assay the target is MAGEB2 peptide … / HLA-A*02:01 / b2m (human). The assay can be described thus: FACS.

B1: MA 09-G10 CC (C4K) (antibody, V domains shown)
VH: QITLKESGPTLVKPTQTLTLTCTFSGFSFTTHKMGVDWIRQPPGKCLEWLAGIHIYDDKRYSPSLQSRLTITKDTSKNQVVLTMTNMDPVDTATYYCAYRRYNWNYENWFDPWGQGTLVTVSS
VL: DIQMTQSPSSLSASVGDRVTITCQASQDISNYFNWYQQKPGKAPKLLIYAASSLQSGVPSRFSGSGSGTDFTLTISSLQPEDFATYYCQQSYITPFTFGCGTKVEIK
Consider B1, for which the Kd worked out at 0.8 nM.

B2: MA 09-F11 CC (L6Q) (antibody, V domains shown)
VH: QITLKESGPMLVKPTQTLTLTCTFSGFSFTTHKMGVDWIRQPPGKCLEWLALIYWNDDKRYSPSLQSRLTITKDTSKNQVVLTMTNMDPVDTATYYCAYRRYNWNYENWFDPWGQGTLVTVSS
VL: DIQMTQSPDSLSASVGDRVTITCQASQDISNYLNWYQQKPGKAPKLLIYAASSLQSGVPSRFSGSGSGTDFTLTISSLQPEDFATYYCQQSYMWPTIFGCGTKVEIK
B2 gave a Kd of 0.6 nM.

B3: MA 09-H10 CC (B6N) (antibody, V domains shown)
VH: QITLKESGPTLVKPTQTLTLTCTFSGFSFTTHKMGVDWIRQPPGKCLEWLALIYWNDDKRYSPSLQSRLTITKDTSKNQVVLTMTNMDPVDTATYYCAYRRYNWNYENWFDPWGQGTLVTVSS
VL: DIQMTQSPSSLSASVGDRVTITCQASQDISNYLNWYQQKPGKAPKLLIYAASSLQSGVPSRFSGRGSGTDFTLTISSLQPEDFATYYCQQSYTPPTTFGCGTKVEIK
Regarding B3, the Kd is 0.6 nM.

B4: MA 09-H11 CC (I8L) (antibody, V domains shown)
VH: QITLKESGPTLVKPTQTLTLTCTFSGFSFTTHKMGVDWIRQPPGKCLEWLALIYWNDDKRYSPSLQSRLTITKDTSKNQVVLTMTNMDPVDTATYYCAYRRYNWNYENWFDPWGQGTLVTVSS
VL: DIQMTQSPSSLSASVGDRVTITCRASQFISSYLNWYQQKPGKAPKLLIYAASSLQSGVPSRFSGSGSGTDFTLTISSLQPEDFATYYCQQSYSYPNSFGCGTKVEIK
B4 had a Kd of 0.5 nM.

B5: MA 09-F12 CC (D1U) (antibody, V domains shown)
VH: QITLKESGPALVKPTQTLTLTCTFSGFSFTTHKMGVDWIRQPPGKCLEWLALIYWNDDKRYSPSLQSRLTITKDTSKNQVVLTMTNMDPVDTATYYCAYRRYNWNYENWFDPWGQGTLVTVSS
VL: DIQMTQSPSSLSASVGDRVTITCQASQDISNYLNWYQQKPGKAPKLLIYAASSLQSGVPSRFSGRGSGTDFTLTISSLQPEDFATYYCQQSYYYPTLFGCGTKVEIK
B5 returned a Kd of 0.5 nM.

B6: MA SG-F28 CC (D9R) (antibody, V domains shown)
VH: QVQLQESGPGLVKPSQTLSLTCTVSGDSISSNPYYWSWIRQHPGKCLEWIGYISYSGITNYNPSLKSRVTMSVDTSKNQFSLKLTSLTAADTAVYYCAREKMWFGVLNYYYGMDVWGQGTTVTVSS
VL: DIVMTQTPLSLPVTPGEPASISCRSSQSLLHRSGYNYLDWYLQKPGQSPQLLIYLGSNRASGVPDRFSGSGSGTDFTLKISRVEAGDVGVYYCMQALQTPWTFGCGTKVEIK
Regarding B6, the Kd stood at 76.8 nM.

B7: MA 86-A4 CC (K2W) (antibody, V domains shown)
VH: QVQLVESGGGVVQPGRSLRLSCAASGFTFSTYGMHWVRQAPGKCLEWVAVISYDASNKYYAESVKGRFTISRDNSKNTLYLQMNSLRAEDTAVYYCARGQLLTGYWGQGTLVTVSS
VL: DIQMTQSPSSLSASVGDRVTITCRASQGISNYLAWYQQKPGKVPKLLIYAASTLQSGVPSRFSGSGSGTDFTLTISSLQPEDFATYYCQKYNSAPFTFGCGTKVEIK
The molecule B7 displayed a Kd of 35.5 nM.

B8: MA 88-B3-F9 CC (Y4E) (antibody, V domains shown)
VH: QVQLVESGGGLVKPGGSLRLSCAASGFTFSDYYMSWIRQAPGKCLEWVSYISKSSYTVTYADAVKGRFTISRDNAKNSLYLQMNSLRAEDTAVYYCATYNYGHFDYWGQGTLVTVSS
VL: SYVLTQPPSVSVAPGQTARITCGGNNIGSKSVHWYQQKPGQAPVLVVYDDADRPSGIPERFSGSNSGNTATLTISRVEAGDEADYYCQVWDASAGYGVVFGCGTKLTVL
On to B8, for which binding was characterised by a dissociation constant (Kd) of 74.1 nM.

B9: MA 10-H1 CC (T9K) (antibody, V domains shown)
VH: EVQLVESGGGLVQPGGSLRLSCAASGFTFSNAWMSWVRQAPGKCLEWVGRITSGIYGGTTDYAAPVKGRFTISRDDSKNTLYLQMNSLKTEDTAVYYCTTPSYSGSYYNYFSVMDVWGQGTTVTVSS
VL: DIQMTQSPSSLSASVGDRVTITCRTSQSISSYLNWYQQKPGRAPKLLIFAASSLQSGVPSRFSGSGSGTDFTLTISSLQPEDFATYYCQQTYSMPFTFGCGTKVDIK
B9 yielded a Kd of 1.2 nM.

B10: MA 09-C7 CC (K9T) (antibody, V domains shown)
VH: QVTLKESGPALVKPTQTLTLTCTFSGFSFTTHKMGVDWIRQPPGKCLEWLAEIHSEDDKRYSPSLQSRLTITKDTSKNQVVLTMTNMDPVDTATYYCAYRRYNWNYENWFDPWGQGTLVTVSS
VL: DIQMTQSPSSLSASVGDRVTITCRASQSISNYFNWYQQKPGKAPKLLIYAASSLQSGVPSRFSGSGSGTDFTLTISSLQPEDFATYYCQQSYITPFTFGCGTKVEIK
Consider B10, for which binding was characterised by a dissociation constant (Kd) of 0.9 nM.

B11: MA 10-D3 CC (O6B) (antibody, V domains shown)
VH: EVQLVESGGGLVQPGGSLRLSCAASGFTFSNAWMSWVRQAPGKCLEWVGRITSSRYGGTTDYAAPVKGRFTISRDDSKNTLFLQMNSLKTEDTAVYYCTTPSYSGSYYNYFSVMDVWGQGTTVTVSS
VL: DIQMTQSPSSLSASVGDRVTITCRTSQSISSYLNWYQQKPGRAPKLLIFAASSLQGGVPSRFSGSGSGTDFTLTISSLQPEDFATYYCQQTYSMPFTFGCGTKVDIK
Regarding B11, binding was characterised by a dissociation constant (Kd) of 1.1 nM.

B12: MA 10-D6 CC (V6Z) (antibody, V domains shown)
VH: EVQLVESGGGLVKPGGSLRLSCAASGFTFSNAWMSWVRQAPGKCLEWVGRILNNAYGGTTDYAAPVKGRFTISRDDSKNTLYLQMNSLKTEDTAVYYCTTPSYSGSYYNYFSVMDVWGQGTTVTVSS
VL: DIQMTQSPSSLSASVGDRVTITCRTSQSISSYLNWYQQKPGRAPKLLIFAASSLQGGVPSRFSGSGSGTDFTLTISSLQPEDFATYYCQQTYSMPFTFGCGTKVDIK
As for B12, the Kd was determined as 0.7 nM.

B13: MA 09-E2 CC (V8T) (antibody, V domains shown)
VH: EVQLVESGGGLVQPGGSLRLSCAASGFTFSNAWMSWVRQAPGKCLEWVGRIKSKTYGGTTDYAAPVKGRFTISRDDSKNTLFLQMNSLKTEDTAVYYCTTPSYSGSYYNYFSVMDVWGQGTTVTVSS
VL: DIQMTQSPSSLSASVGDRVTITCRTSQSISSYLNWYQQKPGRAPKLLIFAASSLQGGVPSRFSGSGSGTDFTLTISSLQPEDFATYYCQQSYSSPFTFGCGTKVEIK
B13: the Kd amounted to 0.7 nM.

B14: MA 10-B5 CC (H6H) (antibody, V domains shown)
VH: EVQLVESGGGLVQPGGSLRLSCAASGFTFSNAWMSWVRQAPGKCLEWVGRIRSRSYGGTTDYAAPVKGRFTISRDDSKNTLFLQMNSLKTEDTAVYYCTTPSYSGSYYNYFSVMDVWGQGTTVTVSS
VL: DIQMTQSPSSLSASVGDRVTITCRTSQSISSYLNWYQQKPGRAPKLLIFAASSLQGGVPSRFSGSGSGTDFTLTISSLQPEDFATYYCQQTYSMPFTFGCGTKVEIK
In turn, B14 returned a dissociation constant (Kd) of 0.7 nM.

B15: MA 09-G11 CC (Y9Q) (antibody, V domains shown)
VH: QITLKESGPMLVKPTQTLTLTCTFSGFSFTTHKMGVDWIRQPPGKCLEWLALIYWNDDKRYSPSLQSRLTITKDTSKNQVVLTMTNMDPVDTATYYCAYRRYNWNYENWFDPWGQGTLVTVSS
VL: DIQMTQSPSSLSASVGDRVTITCRASQFISSYLNWYQQKPGKAPKLLIYAASSLQSGVPSRFSGRGSGTDFTLTISSLQPEDFATYYCQQSYQSPTTFGCGTKVEIK
Consider B15, for which binding was put at a Kd of 0.6 nM.

B16: MA 81-B9 CC (U4L) (antibody, V domains shown)
VH: QVQLQESGPGLVKPSETLSLTCTVSGDSISSSRYYWGWIRQPPGKCLEWIGSIYYSGSTYYNPSLKSRVTISVDTSKNQFSLKLSSVTAADTAVYYCARGIFGVITYFDYWGQGTLVTVSS
VL: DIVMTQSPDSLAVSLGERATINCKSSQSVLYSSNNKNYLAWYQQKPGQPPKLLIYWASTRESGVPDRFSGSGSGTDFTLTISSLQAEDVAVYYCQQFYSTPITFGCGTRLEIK
B16 came in with a Kd of 18.8 nM.

B17: MA 03-G10_AS CC (N3H) (antibody, V domains shown)
VH: EVQLLESGGGLVQPGGSLRLSCAASGFTFSSYAMSWVRQAPGKCLEWVSAISGSGGGTYYAASVKGRFTISRDNSKNTLYLQMSSLRAEDTAVYYCATGKGVHLGFDYWGQGTLVTVSS
VL: SYVLTQPPSVSVAPGQTARITCGGNNIGSKSVHWYQQKPGQAPVMVVYDDNDRPSGIPERFSGSNSGNTATLTISRVEAGDEADYYCQVWDYSGQRQVFGCGTKLTVL
Turning to B17, the Kd came to 0.9 nM.

B18: MA 03-E7_AS CC (L6M) (antibody, V domains shown)
VH: EVQLLESGGGVVQPGRSLRLSCAASGFTFSSHAMSWVRQAPGKCLEWVSAISGSGGGTYYAASGKGRFTISRDNSKNTLYLQMNSLRAEDTAAYYCVTGKGVHLGFDYWGQGTLVTVSS
VL: SYVLTQPPSVSVAPGQTARITCGGNNIGSKSVHWYQQKPGQAPVMVVYDDNDRPSGIPERFSGSNSGNTATLTISRVEAGDEADYYCQVWDYNMNVWVFGCGTKLTVL
Consider B18, for which the equilibrium dissociation constant (Kd) was determined as 0.5 nM.

B19: MA 98-C7 CC (Y8P) (antibody, V domains shown)
VH: EVQLLESGGGLVQPGGSLRLSCAASGFTFSSHAMSWVRQAPGKCLEWVSSISGSGGGTYYAASVKGRFTISRDNSKNTLYLQMNSLRAEDTAVYYCATGKGVHLGFDYWGQGTLVTVSS
VL: SYVLTQPPSVSVAPGQTARITCGGNNIGSKSVHWYQQKPGQAPVMVVYDDNDRPSGIPERFSGSNSGNTATLTISRVEAGDEADYYCQVWDYSPLRHVFGCGTKLTVL
B19 came in with a Kd of 0.7 nM.

B20: MA 98-G12_AS CC (Q4Z) (antibody, V domains shown)
VH: EVQLLESGGGLVQPGGSLRLSCAASGFTFSSHAMSWVRQAPGKCLEWVSAISGSGGGTYNAASVKGRFTISRDNSKNTLYLQMNSLRAEDTAAYYCVTGKGVHLGFDYWGQGTLVTVSS
VL: SYVLTQPPSVSVAPGQTARITCGGNNIGSKSVHWYQQKPGQAPVMVVYDDNDRPSGIPERFSGSNFGNTATLIISRVEAGDEADYYCQVWDYFSMTHVFGCGTKLTVL
B20 showed a Kd of 0.9 nM.

B21: MA 10-G10 AS CC (T1I) (antibody, V domains shown)
VH: EVQLLESGGGLVQPGGSLRLSCAASGFTFSSHAMSWVRQAPGKCLEWVSAISGSGGGTYNAASVKGRFTISRDNSKNTLYLQMNSLRAEDTAVYYCATGKGVHLGFDYWGQGTLVTVSS
VL: SYVLTQPPSVSVAPGQTARITCGGNNIGSKSVHWYQQKPGQAPVMVVYDDNDRPSGIPERFSGSNSGNTATLTISRVEAGDEADYYCQVWDYVAPRHVFGCGTKLTVL
In turn, B21 showed a Kd of 1.7 nM.

B22: MA 03-D8 AS CC (L7E) (antibody, V domains shown)
VH: EVQLLESGGGLVQPGGSLRLSCAASGFTFSSHAMSWVRQAPGKCLEWVSTISGSGGGTYYAASVKGRFTISRDNSKNTLYLQMNSLRAEDTAVYYCATGKGVHLGFDYWGQGTLVTVSS
VL: SYVLTQPPSVSVAPGQTARITCGGNNIGSKSVHWYQQKPGQAPVMVVYDDNDRPSGIPERFSGSNFGNTATLIISRVEAGDEADYYCQVWDYRTLDWVFGCGTKLTVL
B22: the Kd worked out at 0.5 nM.
